Assay results from the supplement of paper PMC9170038.

System: MS2 coat protein
Experiment: apparent KD of MS2 coat protein; designed switch direction (-1 OFF switch, 1 ON switch): -1; higher = weaker reporter binding
How it was run: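 Designed RNA switches sharing common flanks were transcribed on Illumina chips by stalled E. coli RNA polymerase. They were titrated with SNAP-549-labelled MS2 coat protein, from 0.7 or 1.5 nM doubling to 3 µM, in Tris-HCl pH 7.5 buffer with KCl, MgCl2, BSA, DTT, tRNA and Tween-20. Titrations ran without input, with 200 uM small-molecule ligand, or with an oligonucleotide input. The apparent KD of each design is the median over its clusters, after curve-fitting of normalised cluster fluorescence.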

[1] = Eterna round: R95, input ligand: microRNA oligo, concentration not stated
[2] = input ligand: microRNA oligo, concentration not stated
[3] = Eterna round: R95, input ligand: FMN 200 uM
[4] = Eterna round: R95, input ligand: none

With “AAUAACAGAGGAUAUACUAUUUUAUGUGUUUGUUAUUUUGAACAUGAGGAUCACCCAUGUAGAAGGCUGAUUAA [JMF 49] (puzzle: Exclusion 2)” the “apparent KD of MS2 coat protein” value [1] was 39.4 nM.
“AAUAACAGAGGAUAUACUAUUUUAUGUGUUUGUUGUUUUAAACAUGAGGAUCACCCAUGUAGAAGGCUGAGUAA [JMF 33] (puzzle: Exclusion 2)” was tested, and the “apparent KD of MS2 coat protein” value [1] was 21.8 nM.
With “AAUAACAGAGGAUAUACUAUUUUAUGUGUUUGUUGUUUUAAACAUGAGGAUCACCCAUGUAGAAGGCUGAUUGA [JMF 74] (puzzle: Exclusion 2)” the “apparent KD of MS2 coat protein” value [1] was 31.1 nM.
In the case of “AAUAACAGAGGAUAUACUGUUUUAUGUGUUUGUUAUUUUGAACAUGAGGAUCACCCAUGUAGAAGGCUGAAUAA [JMF 23] (Eterna round: R96, puzzle: Exclusion 2)”, the “apparent KD of MS2 coat protein” value (input ligand: FMN 200 uM) is reported as 23.9 nM, the “apparent KD of MS2 coat protein” value [2] is reported as 18.8 nM and the “apparent KD of MS2 coat protein” value (input ligand: none) is reported as 25.3 nM.
“AAUAACAGAGGAUAUACUGUUUUAUGUGUUUGUUAUUUUGAACAUGAGGAUCACCCAUGUAGAAGGCUGAAUAA [JMF 23] (puzzle: Exclusion 2)” was tested, and the “apparent KD of MS2 coat protein” value [1] was 21.3 nM.
For “AAUAACGAGCCGGUCCUCCACAUGAGGAUCACCCAUGUGUUCGUCUUGUAAAGUACUAUCACGAAAGUGAUAGUACA [mod jandersonlee2] (Eterna round: R97, puzzle: Sensor, turn-off variant 1)”, the “apparent KD of MS2 coat protein” value (input ligand: FMN 200 uM) was 746 nM and the “apparent KD of MS2 coat protein” value (input ligand: none) was 858 nM.
In the case of “AAUAAUAAGGAGGAUAUCGUAUCGGAAACGAUACGAGAAGGCCUAACAUGAGGAUCACCCAUGUUCCUUAAAUA [Mat - Exclusion 6 - Eli Mod - D61] (puzzle: Exclusion 6)”, the “apparent KD of MS2 coat protein” value [3] is reported as 37.3 nM, the “apparent KD of MS2 coat protein” value [1] is reported as 19.1 nM and the “apparent KD of MS2 coat protein” value [4] is reported as 20.1 nM.
With “AAUAAUAGCGAGGAUAUCGUAUCGGAAACGAUACGAGAAGGCGUAACAUGAGGAUCACCCAUGUGUCCUCAAAA [Mat - Exclusion 6 - Eli Mod - D7] (Eterna round: R97, puzzle: Exclusion 6)” the “apparent KD of MS2 coat protein” value (input ligand: FMN 200 uM) was 2520 nM and the “apparent KD of MS2 coat protein” value (input ligand: none) was 146 nM.
In the case of “AAUAAUGAACGAGCUUUUUACAUGAGGAUCACCCAUGUCCUCUGCUCGUCUUGUCUUGGGCUUUUUUUGGGUUCGGG [-22.1, -44.7 kcal, A 17%] (Eterna round: R97, puzzle: Sensor, turn-off variant 1)”, the “apparent KD of MS2 coat protein” value (input ligand: FMN 200 uM) is reported as 331 nM and the “apparent KD of MS2 coat protein” value (input ligand: none) is reported as 338 nM.
With “AAUAAUGAGUAGGAUAUCACUAGCGAUAGCUAGUGAGAAGGACUCACAUGAGGAUCACCCAUGUGUUCCAAUAA [Mod3 Ex6/6-A4 by Brourd] (Eterna round: R97, puzzle: Exclusion 6)” the “apparent KD of MS2 coat protein” value (input ligand: FMN 200 uM) was 195 nM and the “apparent KD of MS2 coat protein” value (input ligand: none) was 50.8 nM.
With “AAUAAUUGUGACUUGGGUGACAUGAGGAUCACCCAUGUUACAAGCUUGUUGCUCGUCUUAUAAUUAACCCAUGUCAC [LRO Sensor-off var1-24 mod of Stov1-13-A1 by Brourd] (Eterna round: R97, puzzle: Sensor, turn-off variant 1)” the “apparent KD of MS2 coat protein” value (input ligand: FMN 200 uM) was 21.1 nM and the “apparent KD of MS2 coat protein” value (input ligand: none) was 21.9 nM.
For “AAUACAAGCGAGAUCCUAAACAUGAGGAUCACCCAUGUGCUCGUCUUAUAAAGUACUAUCACGAAAGUGAUAGUACA [Sensor 3, v1 - 67] (puzzle: Sensor v3, turn-off variant 1)”, the “apparent KD of MS2 coat protein” value [3] was 16.7 nM, the “apparent KD of MS2 coat protein” value [1] was 157 nM and the “apparent KD of MS2 coat protein” value [4] was 16.5 nM.
“AAUACAAGCUAUUGAUCCCACAUGAGGAUCACCCAUGUAGCUGGCCGUGAGACCAGCUUUACGAUAGCUCGUCUUAU [Sensor-V1 #50] (Eterna round: R97, puzzle: Sensor, turn-off variant 1)” was tested, and the “apparent KD of MS2 coat protein” value (input ligand: FMN 200 uM) was 261 nM and the “apparent KD of MS2 coat protein” value (input ligand: none) was 263 nM.
“AAUACAAGCUAUUGAUCCCACAUGAGGAUCACCCAUGUAGGAGGCCGUGAGACCUCCUUUACGAUAGCUCGUCUUAU [Sensor-V1 #52] (Eterna round: R97, puzzle: Sensor, turn-off variant 1)” was tested, and the “apparent KD of MS2 coat protein” value (input ligand: FMN 200 uM) was 211 nM and the “apparent KD of MS2 coat protein” value (input ligand: none) was 208 nM.
With “AAUACAAGCUAUUGAUCCCACAUGAGGAUCACCCAUGUAUAUGGCGGUGACACCUCCAUGACGAUAGCUCGUCUUAU [Sensor-V1 #58] (Eterna round: R97, puzzle: Sensor, turn-off variant 1)” the “apparent KD of MS2 coat protein” value (input ligand: FMN 200 uM) was 567 nM and the “apparent KD of MS2 coat protein” value (input ligand: none) was 1360 nM.
For “AAUACAAGCUAUUGAUCCCACAUGAGGAUCACCCAUGUUCCUGGCCGUGAGACAAGGUUGACAAUAGCUCGUCUUAU [Sensor-V1 #45] (Eterna round: R97, puzzle: Sensor, turn-off variant 1)”, the “apparent KD of MS2 coat protein” value (input ligand: FMN 200 uM) was 285 nM and the “apparent KD of MS2 coat protein” value (input ligand: none) was 299 nM.
For “AAUAGUUGAGUAGGAUAUGCAUCGACCGGCCGAGCAGAAGGACUCGUGAACUUGAGGAUCACCCAAGUGUCCUCGUUUGCUUGA [Mutated MS2 EX1.16] (Eterna round: R96, puzzle: Exclusion NG 1)”, the “apparent KD of MS2 coat protein” value (input ligand: FMN 200 uM) was 139 nM, the “apparent KD of MS2 coat protein” value [2] was 125 nM and the “apparent KD of MS2 coat protein” value (input ligand: none) was 134 nM.
With “AAUAUCACAGGAUAUCCGGAUUUGUACAUGAGGAUCACCCAUGUGGUGACGUAGAACUCCGGAGAAGGGUGUCCAG [Eternabot (L2) Solution 89] (Eterna round: R97, puzzle: Exclusion 5)” the “apparent KD of MS2 coat protein” value (input ligand: FMN 200 uM) was 29 nM and the “apparent KD of MS2 coat protein” value (input ligand: none) was 161 nM.
In the case of “AAUCCACAUGAGGAUCACCCAUGUGAGGAUAUGAUACUAUGUACUUCGGUACAUAGUAUCAGAAGGCACAGGUC [Ex1-3: 58] (puzzle: Exclusion 1)”, the “apparent KD of MS2 coat protein” value [1] is reported as 25 nM.
In the case of “AAUGAGGGAGGAUAUACAUUCGGCUGUCAACAGCCCUUGGGACAUGAGGAUCACCCAUGUAGAAGGCCCGAUUA [EX2 B.20] (Eterna round: R97, puzzle: Exclusion 2)”, the “apparent KD of MS2 coat protein” value (input ligand: FMN 200 uM) is reported as 365 nM and the “apparent KD of MS2 coat protein” value (input ligand: none) is reported as 38.7 nM.
In the case of “AAUGGGUGUGUGAGGAUAUACGAUGGCAGUUGCCAGUAGAAGGUACAUGAGGAUCACCCAUGUGUCCAAAAGUG [Aquin] (puzzle: Brourd's mod of Exclusion 4)”, the “apparent KD of MS2 coat protein” value [1] is reported as 11.9 nM.
With “AAUGUCUGAGGAUAUCGUUUUUUGUACAUGAGGAUCACCCAUGUUUUAUUUUGUAUAUUACGAGAAGGCAGUGGAA [JR_E5_Sub088] (puzzle: Exclusion 5)” the “apparent KD of MS2 coat protein” value [1] was 22.7 nM.
For “AAUGUGUGAGGAUAUUAGUUGUACGUCAAUAGACGUAUAAGUGAGAAGGCACAUGAGGAUCACCCAUGUUCCUG [Omei Ex4 Mod of Mat's R95 mod of Omei v6] (Eterna round: R97, puzzle: Exclusion 4)”, the “apparent KD of MS2 coat protein” value (input ligand: FMN 200 uM) was 109 nM and the “apparent KD of MS2 coat protein” value (input ligand: none) was 24.9 nM.
For “AAUUAGCAAGCAAGAUCCCACAUGAGGAUCACCCAUGUGCUCGUCUUAUAAGGUACUGUGACGAGAGUCACGGUACC [Mat - Sensor, turn-off var - Eli Mod - D48] (Eterna round: R97, puzzle: Sensor, turn-off variant 1)”, the “apparent KD of MS2 coat protein” value (input ligand: FMN 200 uM) was 51.5 nM and the “apparent KD of MS2 coat protein” value (input ligand: none) was 50.5 nM.
In the case of “AAUUAGCAAGCGAGAUCUCACAUGAGGAUCACCCAUGUGCUCGUCUUAUAAGGUACUGUGACGAUAGUCACGGUACC [Mat - Sensor, turn-off var - Eli Mod - D39] (Eterna round: R97, puzzle: Sensor, turn-off variant 1)”, the “apparent KD of MS2 coat protein” value (input ligand: FMN 200 uM) is reported as 13.2 nM and the “apparent KD of MS2 coat protein” value (input ligand: none) is reported as 14.8 nM.
“AAUUAGUAUGUGAGGAUAUUGACGGAAUGACUUGUUAAGAAGGCACAUGAGGAUCACCCAUGUGGGAAGUCACG [JR_BMEx4_Sub012] (Eterna round: R97, puzzle: Brourd's mod of Exclusion 4)” was tested, and the “apparent KD of MS2 coat protein” value (input ligand: FMN 200 uM) was 57.1 nM and the “apparent KD of MS2 coat protein” value (input ligand: none) was 18.1 nM.
“AAUUAGUAUGUGAGGAUAUUGACGUAAUGACUGGUUAAGAAGGCACAUGAGGAUCACCCAUGUGGGAAGUCACG [JR_BMEx4_Sub011] (Eterna round: R97, puzzle: Brourd's mod of Exclusion 4)” was tested, and the “apparent KD of MS2 coat protein” value (input ligand: FMN 200 uM) was 56.8 nM and the “apparent KD of MS2 coat protein” value (input ligand: none) was 15.2 nM.
For “AAUUAUUAUUGAGGAUAUCGUAUUGAAAUAAUAUGAGAAGGCGGGAUAAACAUGAGGAUCACCCAUGUGAGCCUGAUGCUUGUG [Ex NG1 #39] (Eterna round: R96, puzzle: Exclusion NG 1)”, the “apparent KD of MS2 coat protein” value [2] was 13.3 nM.
“AAUUCACAUGAGGAUCACCCAUGUCAGGAUAUGGUUUCACGUGUUUCUUUGCUUGAGGCCAGAAGGGACAGCUA (puzzle: Exclusion 1)” was tested, and the “apparent KD of MS2 coat protein” value [1] was 67.2 nM.
With “AAUUCACAUGAGGAUCACCCAUGUCAGGAUAUGGUUUCACUUUUUUCUUUUCUUGAUUCCAGAAGGGACAGCUA (puzzle: Exclusion 1)” the “apparent KD of MS2 coat protein” value [1] was 62.6 nM.
In the case of “AAUUCGCAAGCGAGAUCCCACAUGAGGAUCACCCAUGUGCUCGUCUUAUAAGGUACUGUGACGAAAGUCACGGUACC [Mat - Sensor, turn-off var - Eli Mod - D85] (Eterna round: R97, puzzle: Sensor, turn-off variant 1)”, the “apparent KD of MS2 coat protein” value (input ligand: FMN 200 uM) is reported as 16.2 nM and the “apparent KD of MS2 coat protein” value (input ligand: none) is reported as 17.1 nM.
For “AAUUCUAGGGUCAGACGCACAAGCUUUUUGUUCGUUUUAACAUGAGGAUCACCCAUGUCUAGUGGAUCUGAUCGGGC [JL ViennaUCT Isreen mod 9] (puzzle: Sensor v3, turn-off variant 2)”, the “apparent KD of MS2 coat protein” value [3] was 28.6 nM, the “apparent KD of MS2 coat protein” value [1] was 71.4 nM and the “apparent KD of MS2 coat protein” value [4] was 31 nM.
With “AAUUUACAUGAGGAUCACCCAUGUGAGGAUAUAUACAAAGAAGUGUUAGUAAGAAUGUAUAGAAGGCGCGUGAU [JR_Exc1_Sub040] (Eterna round: R97, puzzle: Exclusion 1)” the “apparent KD of MS2 coat protein” value (input ligand: FMN 200 uM) was 71.4 nM and the “apparent KD of MS2 coat protein” value (input ligand: none) was 58.6 nM.
In the case of “ACAACAAGCUUUUUGAACGUAGAACAUGAAGCUCUAGUCACAUGAGGAUCACCCAUGUCAGCCAGUUAGAUAGGUGA [JR_SV3TOV2_Sub065] (puzzle: Sensor v3, turn-off variant 2)”, the “apparent KD of MS2 coat protein” value [3] is reported as 64.5 nM, the “apparent KD of MS2 coat protein” value [1] is reported as 49 nM and the “apparent KD of MS2 coat protein” value [4] is reported as 51.2 nM.
With “ACAACUGUAGGAUAUACUUUCUGGGUAAGCCAUUAUACUGGACAUGAGGAUCACCCAUGUAGAAGGACAGAAAG [Eternabot (Original) Solution 36] (Eterna round: R97, puzzle: Exclusion 2)” the “apparent KD of MS2 coat protein” value (input ligand: FMN 200 uM) was 29.6 nM and the “apparent KD of MS2 coat protein” value (input ligand: none) was 35.1 nM.
